Results: patent publication US20160039936A1, “FIBROBLAST GROWTH FACTOR RECEPTOR INHIBITION FOR THE TREATMENT OF DISEASE” (UNIVERSITY OF MIAMI, priority 2011, published 2016)

B1: FGF23: recombinant mouse FGF23, 6His-tagged Tyr25-Val251 (Arg179Gln) (R&D Systems) (protein)
chain: YPDTSPLLGSNWGSLTHLYTATARTSYHLQIHRDGHVDGTPHQTIYSALMITSEDAGSVVITGAMTRRFLCMDLHGNIFGSLHFSPENCKFRQWTLENGYDVYLSQKHHYLVSLGRAKRIFQPGTNPPPFSQFLARRNEVPLLHFYTVRPRRHTQSAEDPPERDPLNVLKPRPRATPVPVSCSRELPSAEEGGPAASDPLGVLRRGRGDARGGAGGADRCRPFPRFV
modifications: left off: small tags and cut ends
B2: FGF2: recombinant mouse FGF2 (Ala11-Ser154) (R&D Systems) (protein)
chain: ALPEDGGAAFPPGHFKDPKRLYCKNGGFFLRIHPDGRVDGVREKSDPHVKLQLQAEERGVVSIKGVCANRYLAMKEDGRLLASKCVTEECFFFERLESNNYNTYRSRKYSSWYVALKRTGQYKLGSKTGPGQKAILFLPMSAKS

What was measured:
Assay type in all cases: cell-based, rat
isolated NRVM [1] = experiment: Quantitative PCR of ANP and BNP in NRVM; conditions: for expression of ANP and BNP: 48 h, FGF alone, qPCR
Protocol: Total RNA was purified from isolated NRVMs using Trizol (G Biosciences) according to the manufacturer's protocol, and reverse transcribed using Qscript (Quanta Biosciences). Gene expression was quantified by real-time PCR on a Biorad CFX 96 real-time Detection System using 200 ng of cDNA, PerfeCTA SYBR Green FastMix ROX (Quanta Biosciences). RNA from total mouse and rat hearts was extracted using the PureLink RNA Mini Kit (Ambion by Life Technologies) and Trizol (Life Technologies). 2 μg total RNA was reverse-transcribed using First Stand cDNA Synthesis Kit for RT-PCR (AMV) (Roche Diagnostics). Quantitative PCR reactions were carried out in the StepOne plus Real-Time PCR System (Applied Biosystems) using FAST SYBR Green Master Mix (Applied Biosystems). Raw data were quantified via StepOne™ software v2.3 from life Technologies. Relative gene expression was normalized to expression levels of 18S rRNA (for NRVM), and GAPDH or beta actin (mouse and rat tissue), and evaluated using the 2^−ΔΔCt method.

isolated NRVM [2] = experiment: Signaling immunoblots in NRVM (p-ERK, Egr-1, p-NFAT, p-Akt); conditions: for Egr-1 levels / phosphorylated ERK: 30 and 60 minutes
Protocol: NRVM were scraped from a 6 cm-plate using 400 μl CHAPS extraction buffer [(20 mM Tris-HCl pH7.5, 500 mM NaCl, 0.5% CHAPS, protease inhibitor cocktail (Roche), protein phosphatase inhibitors (Sigma-Aldrich)] and incubated on ice for 15 minutes. The cell lysate was centrifuged at 14,000 rpm and 4° C. for 15 minutes and the supernatant boiled in sample buffer and analyzed by SDS-PAGE and immunoblotting as described before (Faul et al., Cell Biol., 169(3):415-424, 2005; Faul et al., Mol. Cell Biol., 27(23):8215-8227, 2007). For protein extraction from mouse hearts, tissue was isolated, minced and homogenized in CHAPS extraction buffer at 1:10 (w:v) and protein lysates were prepared as described above. Antibodies to sarcomeric α-actinin (EA-53; Sigma-Aldrich; 1:1000), total (Cell Signaling; 1:1000) and phospho-ERK (Cell Signaling; 1:1000), total and phospho-NFAT-c1 (Santa Cruz Biotechnology; 1:200), total and phospho-Akt (Cell Signaling; 1:1000 and 1:2000), and GAPDH (Abcam; 1:10,000) were used as primary antibodies and horseradish peroxidase conjugated goat-anti-mouse and goat-anti-rabbit (Promega; 1:20,000) were secondary antibodies.

NFAT = NFAT gene reporter assay in NRVM; conditions: FGF 25 ng/ml, 2 hours
Protocol: The assay was done as described previously (Kuhn et al., 2009). Briefly, 24 hours after plating, NRVM were serum-starved and infected by an adenovirus (AdNFAT-luc, 20 moi) carrying a firefly luciferase construct under the transcriptional control of three consensus NFAT binding sites (Biomyx). To enable normalization of the ensuing measurements, NRVMs were also infected with an adenovirus (AdRenilla, 10 moi) encoding a renilla luciferase under the transcriptional control of a CMV promoter. Cells were incubated in FGF23 or FGF2 at 25 ng/ml for 2 hours after pre-treatment with or without cyclosporine A (1 μg/ml; Sigma-Aldrich), AZD4547 (5 nM; ChemieTek), or anti-FGFR4/U3-11 (U3Pharma; 10 μg/ml) for 60 minutes. Chemiluminescence was detected and quantified in 4×10^5 cells using the Dual-Luciferase Reporter Assay System (Promega) according to the manufacturer's instructions, and Infinite M200 PRO reader (Tecan). Firefly luciferase activities were then normalized to renilla luciferase activities. All experiments were conducted in triplicates and repeated three times.

Molecule | FGF2-mediated increases in ANP and BNP expression with inhibitor (isolated NRVM [1]; 48 h co-treatment) | FGF23-mediated increases in ANP and BNP expression with inhibitor (isolated NRVM [1]; 48 h co-treatment) | expression of ANP and BNP (isolated NRVM [1]) | Egr-1 levels (isolated NRVM [2]) | phosphorylated ERK (isolated NRVM [2]) | phosphorylated NFAT (isolated NRVM [2]; after 60 minutes) | luciferase activity (NFAT) | phosphorylated Akt (isolated NRVM [2]; after 60 minutes)
CCN(CC)CCCCNc1ncc2cc(-c3cc(OC)cc(OC)c3)c(NC(=O)NC(C)(C)C)nc2n1 [PD173074] | blocks | blocks | – | – | – | – | – | –
B1 | – | – | significantly increased | only a modest increase | only a modest increase | modest decrease | significant elevation | –
B2 | – | – | significantly increased | increase | robust increase | had no effect | did not increase | modest increase
